Assay [1] concerns the target human CD20 (human) (UniProt P11836). The assay is described as follows: cell-based or functional assay.
Assay [2] deals with human CD3 epsilon (human) (UniProt P07766). The assay is described as follows: cell-based or functional assay.
human CD3 epsilon (human), sequence (P07766 23-207): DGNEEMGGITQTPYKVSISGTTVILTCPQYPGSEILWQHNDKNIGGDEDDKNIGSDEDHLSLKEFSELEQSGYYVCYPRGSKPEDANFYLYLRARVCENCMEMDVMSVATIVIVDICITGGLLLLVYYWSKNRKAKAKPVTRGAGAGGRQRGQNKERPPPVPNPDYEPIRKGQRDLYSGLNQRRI

human CD20 (human), sequence (P11836 whole entry): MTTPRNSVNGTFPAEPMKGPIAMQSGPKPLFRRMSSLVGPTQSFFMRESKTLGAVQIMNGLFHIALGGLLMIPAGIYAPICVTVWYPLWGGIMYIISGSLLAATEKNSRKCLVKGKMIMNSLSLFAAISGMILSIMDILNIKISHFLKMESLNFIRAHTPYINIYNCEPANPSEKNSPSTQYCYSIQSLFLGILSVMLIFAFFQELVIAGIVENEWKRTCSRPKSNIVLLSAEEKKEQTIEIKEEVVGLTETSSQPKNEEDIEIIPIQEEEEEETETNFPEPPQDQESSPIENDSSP

Turning to “epcoritamab LMWS fraction (Fc+Fab fragment)”, the biological activity, T-cell activation assay in assay [1] and in assay [2] was 40% in each case.
